In patent publication US20160252495A1 (UNIVERSITY OF BRITISH COLUMBIA, published 2016):

Biological target: T1, hen egg white lysozyme (hen, UniProt P00698 19-147)
T1 construct: also called HEL; hen-egg lysozyme
Assay: affinity measurements by microfluidic screening

T1 sequence (P00698 19-147 limits assumed): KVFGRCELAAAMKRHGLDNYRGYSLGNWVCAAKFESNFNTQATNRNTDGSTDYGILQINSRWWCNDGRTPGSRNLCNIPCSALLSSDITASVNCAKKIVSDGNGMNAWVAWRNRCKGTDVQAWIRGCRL

B1: Mm20 mouse anti-hen egg lysozyme antibody (antibody, V domains shown)
VH: QVQLQQSGPELMKPGASVKISCKATGYTFRNYWIEWIKQRPGHGLEWIGEILPESGSINYNEKFKGKATFTADTSSNTAYLQLRSLTSEDSAVYYCFYDNYVFDYWGQGTTL
VL: QIVLIQSPTIMSASPGEKVTMTCSANSSFSYMHWYQQKSGTSPKRWIYDTSKLASGVPARFSGSGSGTSYSLTISSMEAEDAATYYCQQWSRNPTFGAGTKL
**Q.** Does B1 bind?
**A.** Result: binds
